B1: TPR t1 (parent)
chain: GACCAAUCUGCCCUCAGAGCUCGAGAACAUCUUCGGAUGCAGAGGAGGCAGGCUUCGGUGGCGCGAUAGCGCCAACGUCCUCAACCUCCAAUGCAUCCCACCACAUGAUGAUGCCUGAAGAGCCUUGGUUUUUUG

Variants of B1 are the subject of this data set. Description: polymerase ribozyme fitness, log enrichment relative to wild type (log ratio); higher = more active; in vitro selection for triplet polymerase activity. In a few lines: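 For each subunit of a heterodimeric triplet polymerase ribozyme, a mutant library was built by PCR and transcribed, then taken through a single in vitro selection round in triplicate. Selection involved annealing to a biotinylated primer, the partner subunit and triplets, incubation frozen at −7 °C, gel excision of extended constructs, capture on streptavidin beads and RT-PCR. Genotypes were retained after Illumina sequencing of inputs and outputs only with ≥10 input reads and ≥1 read in each output. Fitness is defined as the logarithm of a genotype's enrichment relative to wild-type enrichment, using inverse-variance-weighted averages across replicates, with the logarithm taken to base 2.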
Regarding C4G A111U, the “polymerase ribozyme fitness (log ratio)” value is -3.42.
Take A5U C11G A29U: the “polymerase ribozyme fitness (log ratio)” value is -3.66.
The figure for C34U C62U is -5.32; for U7C G42C C88U C115U U133A it is -0.576.
As to A6G U112G C114G A119G U131C, the “polymerase ribozyme fitness (log ratio)” value was -5.15.
The figure for A6G C98U is -1.69; for G48A A83U C102A it is -2.24.
The figure for U9A A108U C123G is -4.11.
As for A29C G69U C99U, the figure is -3.95; as for G48U C56G C72A C94A G110C, -5.78.
Regarding G42A C115A U130G, the “polymerase ribozyme fitness (log ratio)” value is -2.13.
With A2U C114U, the “polymerase ribozyme fitness (log ratio)” value is -4.35.
The figure for C70G C79A is -4.41; for G77U A105G it is -2.9.
As for A83U G128C, the figure is -2.32.
As for A74G G117U, the figure is -2.41.
As for C8A C64G C72U A121G, the “polymerase ribozyme fitness (log ratio)” value was -6.31.
The figure for U9A A37C G63A is -0.704; for G93C C99U it is -3.93.
As for C13G C53G G63C, the figure is -2.03.
For C8G A50C C73U G93A, the “polymerase ribozyme fitness (log ratio)” value is -0.0523.
In the case of G19A G71C G127C, the “polymerase ribozyme fitness (log ratio)” value is -4.23.
As for C12G C94G A105C, the figure is -4.19.
Consider C15U G127A U129A, for which the “polymerase ribozyme fitness (log ratio)” value is -4.11.
As for U7A C49U G52U G61A G120A, the figure is 0.469; as for G48A G93A U96C C99U, -4.9; as for C13G G63C U112C G127C U129A, -2.13.
The figure for A118G G122U is 0.311; for G45U G110A it is -2.13; for A18C U92C C97U it is -4.36.
The figure for C70U G113C is -3.06; for A43C G63A C114G C123U it is -6.77; for G36U G120A U126A U132A it is -0.708.
For C73U C82U A91U A100U, the “polymerase ribozyme fitness (log ratio)” value is -3.21.
As for C70U G110C, the figure is -4.32; as for G113C G122A G135U, -4.5.
The figure for G107A G113C is -5.82; for U9G U38G A105U it is -2.64; for G63A C73A A119C G120C it is -1.42.
As for A5G C12A C73A, the figure is -0.594; as for G69U C123U, 1.98.
With C13U C20U G44U G47U, the “polymerase ribozyme fitness (log ratio)” value is -3.8.
The figure for A66U U106C is -1.81; for A27C C94U it is -3.16.
As for A2G C4G G47A G48A C123A, the figure is -3.22; as for C15A A37G G45U C72A G93U U112C G122C C123G U125A, -3.59; as for C62U U131G, -0.5.
For G44A U87G U129G, the “polymerase ribozyme fitness (log ratio)” value is -1.42.
The figure for A5U C8G C15A A41U G48A C49U G113A U129C is -5.44.
As for U9C C49A C86U C94A G113A, the figure is -1.52; as for G23A G48A C86G, -6.91; as for U96G A108G G117A, -4.91.
Consider C13G A24G A27G C56G A111C, for which the “polymerase ribozyme fitness (log ratio)” value was -7.83.
In the case of A90C U112G, the “polymerase ribozyme fitness (log ratio)” value is -0.757.
C34U A84G C89G: the “polymerase ribozyme fitness (log ratio)” value is -6.47.
The figure for U9A C40U A46U C56U C115G U131G is -1.77; for G52U A68U A83C C101G C115U it is -7.12.
As for C80U U109C, the figure is -3.85; as for A27G A29C G36A A46C C72G U106C U112G U116A, -7.34.
The figure for A74U U96A A100U G113U is -6.78; for G71A G117C it is -3.15; for G93U G135C it is -0.696.
Turning to G17C A26G A37U C53G G57A A91G G93U A111U U129G, the “polymerase ribozyme fitness (log ratio)” value is -6.27.
The figure for G60A C88U A118G is -1.01; for C12U C72G U112C it is 1.25; for G42A C94G U130G it is -3.82.
As for A26U C114U, the figure is -5.07; as for U81G U129A, -5.4.
The figure for G69C A100U is -1.67; for U54A C62U C72G it is -1.24.
For C28U C56U C73G U78C C101A, the “polymerase ribozyme fitness (log ratio)” value is -5.44.
As for U33G G61A C80G A91C U92A C101U C115G, the figure is -8.32; as for A5G C12G G42U, -0.303; as for A2G G52U A91U A95C, -3.47.
As for C3G U81C A111C G128A U133G, the figure is -4.61; as for A24G U54G G57C C124U, -2.01; as for G44A G60U, -0.542.
As for A18G A74C C79U, the figure is -4.7.
With A6U G63U U78C C97U G120C, the “polymerase ribozyme fitness (log ratio)” value is -3.08.
With U7A C13U G71A C115U G128A, the “polymerase ribozyme fitness (log ratio)” value was -2.21.
Turning to G69C C104A C123G, the “polymerase ribozyme fitness (log ratio)” value was -1.33.
As for C56U G63A, the “polymerase ribozyme fitness (log ratio)” value is -4.43.
The figure for U81A is -1.01; for A27G G60U A105U it is -5.71; for C34A U55C G60A U129G it is -4.44.
The figure for A2C G71A C115A C123U is -2.71; for C20A A41G C53A G71U U78G it is -5.43.
In the case of C11U A27U, the “polymerase ribozyme fitness (log ratio)” value was -1.89.
As for C20U G39A C56A G69U C94G, the figure is -1.55.
For the variant G36U G39U C70U A111G, the “polymerase ribozyme fitness (log ratio)” value was -4.55.
As for A24U G35C C49A G63A A111G C124U G135A, the figure is -6.36.
As to A24C G61U, the “polymerase ribozyme fitness (log ratio)” value is -6.19.
As for C3U C94U U106C, the figure is -0.635.
The figure for A43C U92G A111C C114A is -6.46; for A2G G35C it is -3.63.
Regarding C4U G52C, the “polymerase ribozyme fitness (log ratio)” value was -0.368.
As for C8A G48U C53A C82U U106A A108G, the figure is -1.56; as for G113U U133A, -3.57.
Take A50G C89A: the “polymerase ribozyme fitness (log ratio)” value was -1.48.
U54A U55G G61A C80U: the “polymerase ribozyme fitness (log ratio)” value is -0.516.
As for C12A G122A, the figure is -0.788; as for A5U A18C G57U, -2.21; as for C56U A100U U129A, -1.49.
The figure for C12A A68G A84C is -4.19.
As for C40G G52A U78A C101A G120U, the figure is -2.
For the variant C4G G10U A18G U59G A83C U87A, the “polymerase ribozyme fitness (log ratio)” value was -4.53.
As for G77A A83U A84C C86A C101U G117C, the figure is -6.46.
The figure for U7A C13U A41U C82A G127A is -2.71.
In the case of G117A G120U, the “polymerase ribozyme fitness (log ratio)” value was -1.9.
The figure for C28A C86U A111U is -2.22; for G10A G52U C56G C98U G113U it is -6.91.
As for A111C G117C, the figure is -4.16; as for C12G A75U C94G, -1.33.
As for G60A C89A A105U C114U, the figure is -6.37.
As for C85G U112G, the “polymerase ribozyme fitness (log ratio)” value is -1.15.
As for G42A A46U C76U U96G, the figure is -4.78; as for U7A G10C U21A C56U, -2.02; as for C72G C104A U116A, -5.17.
As for U54G G60U C115A, the figure is -3.58; as for C98U A121C U125A U129A, -1.75; as for A5G A95U A121C G128A U130C, -0.519.
For G19A A95U C101U, the “polymerase ribozyme fitness (log ratio)” value was -3.88.
As to C3U C70U G110A, the “polymerase ribozyme fitness (log ratio)” value is -2.71.
The figure for U9A G44C C70G is -4.48; for A43U C70G it is -4.41; for C49G G120U U132A it is -0.00759.
Regarding C12A C62A, the “polymerase ribozyme fitness (log ratio)” value was -1.05.
Turning to C8U G39A C40A C62U G93U A111C, the “polymerase ribozyme fitness (log ratio)” value was -0.367.
As for C4U A43U U96A, the “polymerase ribozyme fitness (log ratio)” value was -3.02.
As for A103U G120C C124U, the figure is -4.96.
For the variant C85G C124G U126G, the “polymerase ribozyme fitness (log ratio)” value is -0.338.
The figure for A43C C124A U125G is -0.534.
As for C64U C88G, the figure is -1.13.
The figure for A26U U54A G110A is -5.04; for A29C A37G G47U C72U C101U G110U it is -6.59.
For G71U C104A, the “polymerase ribozyme fitness (log ratio)” value was -1.81.
The figure for C11U A26U C49G C73U is -3.93; for U21A A43U C73U A90G it is -2.19; for C11A G48U G60U C123A it is 0.672.
The figure for G42A C114G is -2.75.
On to A29G C73A, for which the “polymerase ribozyme fitness (log ratio)” value was -1.67.
The figure for C4A C114G is -4.25; for C11A G36U G48C it is -3.57.
The figure for U38A G63A is -2.12; for C82A G117U it is -0.792; for G39U G63A G93U it is -3.17.
The figure for A5U G61U C124A is 1.19; for U78C A95C C123A it is 0.0148; for C13G G61A it is -1.99.
With A5U A43G G44A G52C G63C C124U G128U, the “polymerase ribozyme fitness (log ratio)” value is -4.22.
As for U21C G48C A90U G117C G127C, the figure is -5.55; as for A43U U106A A118U, -1.2.
As for C8G U14C G39C A100C, the figure is -0.867; as for C3A C62U A105G, -4.05; as for C13U G113A, 0.0113.
As for U33G C70U U78G, the “polymerase ribozyme fitness (log ratio)” value was -6.53.
For the variant G71U G127U, the “polymerase ribozyme fitness (log ratio)” value is -1.02.
On to U9A G19C A41U G63C, for which the “polymerase ribozyme fitness (log ratio)” value is -3.34.
Consider C28U G120A, for which the “polymerase ribozyme fitness (log ratio)” value was -1.19.
The figure for C73G A90G G113U A118C is -5.26; for C56G U96G it is -1.51.
In the case of A5G A18U G42U G52C G69C, the “polymerase ribozyme fitness (log ratio)” value is -3.05.
The figure for G60A G113A is -0.894; for C13A C94G C101A it is -4.8; for C3G C12G A83C U106A it is -2.23.
The figure for U14C A46U G60C U116C G117A is -5.66.
With U54C G93C G117A, the “polymerase ribozyme fitness (log ratio)” value was -2.18.

These data come from the RNAGym collection of RNA variant scans (doi:10.1073/pnas.2313332121).
